The text below walks through data of the nanobody polyreactivity screen of Harvey et al. (2022).

A short description of the data set: yeast display, Sf9 membrane polyspecificity reagent, FACS + sequencing; frameworks hold sequencing errors. The procedure, abridged:
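A synthetic nanobody library was expressed on Saccharomyces cerevisiae BJ5465 by galactose induction for 36–48 hours. The library was stained for 1 hour at 4 °C with 10% biotinylated, detergent-solubilized Sf9 membrane reagent and enriched with streptavidin microbeads before FACS. Low and high (top ~1%) gates were set on anti-HA fluorescence for expression and streptavidin fluorescence for reagent binding, and each polyreactivity label reflects the gate of origin.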
“QVQLVESGGGLVQAGGSLRLSCAASGRMIKYNTMGWYRQAPGKERELVAAISLSSGSGGGTRYADSVKGRFKISRDNAKNTVYLQMNSLKPEDTAVYYCAARHRYTNEYDYWGQGTQVTVSS”: the “polyreactivity (PSR sort gate)” value is given as “low polyreactivity”.

On to “QVQLQESGGGLVQAGDSQRLSCAASGNIFRFTDMGWYRQAPGKERELVAAINAGSTTYYADSVKGRFTISRDNAKNTVYLQMNSLKPEDTAVYYCAVYYLGSGTFGYWGQGAQVTVSS”, for which the “polyreactivity (PSR sort gate)” value is “high polyreactivity”.

“QVQLVESGGGLVQAGGSLRLSCAASGFISDVYAMGWYRQAPGKERELVAVITWRGSTYYADSVKGRFTISRDNAKNTVYLQMNSLKPEDTAFYYCAAESQGDWAFDYWGQGTQVTVSS”: the “polyreactivity (PSR sort gate)” value is on record as “low polyreactivity”.

Regarding “QVQLVESGGGLVQAGGSLRLSCAASGFTFRAYAMGWYRQAPGKERELVAAISRSGTSTYYADSVKGRFTISRDNAKYTVYLQMNSLKPEDTAVYYCAARLGPYHYATKMYYWGQGTQVTVSS”, the “polyreactivity (PSR sort gate)” value is listed as “high polyreactivity”.

Turning to “QVQLEESGGGIVQAGGSLRLSCAASGRTFGANAMGWYRQAPGKERELVAAISSSDDSTYYADSVKGRFTISRDNAKNTVYLQMNSLKPEDTAVYYCAAEDVYPQLDYWGQGTQVTVSS”, the “polyreactivity (PSR sort gate)” value is listed as “low polyreactivity”.

“QVQLVESGGGLVQAGGSLRLSCAASGSIFVSNAMGWYRQAPGKERELVAAITARDFSTYYADSVKGRFTISRDNAKNTVYLEMNSQKPEDTAVYYCAGNSSTYPSDDSYDYWGQGTQVTVSS”: the “polyreactivity (PSR sort gate)” value is reported as “low polyreactivity”.

As to “QVQLVESGGGLVQAGGSLRLSCAASGRIFYRYARGWYRQAPGKEREFVAAISGTGGSTYYADSVKGRFTISRDNAKNTVYLQMNSLKPEDTAVYYCAAFSYYSSGYDYWGQGTQVTVSS”, the “polyreactivity (PSR sort gate)” value is given as “high polyreactivity”.

“QVQLVESGGRLVQAGGSLRLSCAASGFTFGENAMGWYRQAPGKERELVAAITSGDGTSYADSVKGRFTISRDNAKNTVYLQMNSLKPEDTAVYYCAADGGDELYYSTYDYWGQGTQVTVSS”: the “polyreactivity (PSR sort gate)” value was “low polyreactivity”.

For “QVQLVESGGGLVQAGGSLRLSCAASGRIFYVYAMGWYRQAPGKERELVAAITISGGSTYYADSVKGRFTISRDNAKNTVYLQMNSLKPEDTAVYYCAAGTQAHAYVVRPIEMDYWGQGTQVTVSS”, the “polyreactivity (PSR sort gate)” value is recorded as “low polyreactivity”.

For “QVQLVESGGGLVQAGGSLRLSCAASGSIKQNSMGWYRQAPGKERELVAAIDWDGSSTYYADSVKGRFTISRDNAKNTVYLQMNSLKPEDTAVYYCNTDYTGPDGTDEYDYWGQVTQVTVSS”, the “polyreactivity (PSR sort gate)” value was “low polyreactivity”.

With “QVQLVESGGGLVQAGGSLRLSCAASGRIFSYYAMGWYRQAPGKERELVASISRSGGSTYYADSVKGRFTISRDNAKNTVYLQMNSLKPEDTAVYYCAAYKYVRSYPYDYWGQGTQVTVSS”, the “polyreactivity (PSR sort gate)” value is recorded as “low polyreactivity”.

Regarding “QVQLVESGGGLVQAGGSLRLSCAASGSTFNGYAMGWYRQAPGKERELVAAISKRGGSTYYADSVKGRFTISRDNAKNTVYLQMNSLKPEETAVYYCAARVGRTYTVVWWSHYNYWGQGTQVTVSS”, the “polyreactivity (PSR sort gate)” value is “high polyreactivity”.

Regarding “QVQLVESGGGLVQAGGSLRLSCAASGRTFIFYAMGWYRQAPGKERELVAAITYSGTSTYYADSVKGRFTISRDNAKNTVYLQMNSLKPEDTAVYYCASRPTPYRDDADEYWGQGTQVTVSS”, the “polyreactivity (PSR sort gate)” value is on record as “low polyreactivity”.

In the case of “QVQLVESGGVLVQAGGSLRLSCAASGFTFLAYAMGWYRQAPGKERELVAAINSSDGTTHYADSVKGRFTISRDNAKITVYLQMNSLKPEDTAVYYCAVSQVRTGEGYHYWGQGTQVTVSS”, the “polyreactivity (PSR sort gate)” value is reported as “low polyreactivity”.

Take “QVQLVESGGGLVQAGGSLRLSCAASGRTSEFNAMGWYRQAPGKERELVAAITDGGNTNYADSVKGRFTISRDNAKNTVYLQMNSLKPEDTAVYYCAAERYTWWGFDYDYWGQGTQVTVSS”: the “polyreactivity (PSR sort gate)” value is reported as “high polyreactivity”.

On to “QVQLVESGGGLVQAGGSLRLSCAASGFIFYHNAMGWYRQAPGKERELVAAISSTGGSTHYADSVKGRFTISRDNAKNTVYLQMNSLKPEDTAVYYCNADPRRRWYDYWGQGTQVTVSS”, for which the “polyreactivity (PSR sort gate)” value is given as “high polyreactivity”.

With “QVQLVESGGGLVQAGGSLRLSCAASGSTFGINAMGWYRQAPGKERELVAAISRRGGSTYYADSVKGRFTISRDNAKNSVYLQMNSLKPEDTAVYYCAARYRNHQYDYWGQGTQVTVSS”, the “polyreactivity (PSR sort gate)” value is reported as “high polyreactivity”.

On to “QDQLEESGGGLVQAGGSLRLSCAASGFTFGNNAMGWYRQAPGKERELDAAISKRGSSTYYADSVKGRFTISRDNAKNTVYLLMNSLKPDDTAVYYCAAQTPYYLLYDTGDYLGQGTQVTVSS”, for which the “polyreactivity (PSR sort gate)” value is “high polyreactivity”.

Turning to “QVQLVESGGGLVQAGGSLRLSCAASGSIFVENAMGWYRQAPGEERELVAAISSSGDSTYYADSVKGRFTISRDNAKNTVYLQINSLKPEDTAVYYCNRRRPRYYWGQGTQVTVSS”, the “polyreactivity (PSR sort gate)” value is given as “high polyreactivity”.

For the sequence “QVQLVESGGGLVQAGGSLRLSCAASGRIFGIYAMGWYRQAPGKERELVASITGSSGSTNYADSVKGRFTISRDNAKNTVYLQMNSLKPEDTAVYYCAADIPSYYWWRAYDYWGQGTQVTVSS”, the “polyreactivity (PSR sort gate)” value is recorded as “low polyreactivity”.

For “QVQLVESGGGLVQAGGSLRLSCAASGRIFYWYAMGWYRQAPGKERELVATINQSGSSTYYADSVKGRFTISRDNAKNTVYLQMYSLKPEDTAVYYCNAGGQRPHSVGLVGEMGYWGQGTKVTVSS”, the “polyreactivity (PSR sort gate)” value is recorded as “high polyreactivity”.

For “QVQLEESGAGVVQAGGSLRLSCAASGRTFQYNAMGWYRPAPGTERELVAAISSSGGSTYYADSVKGRFTISRDNAKNTVYFQMNSLNPEDTAVYYCNAYSQSWNFYGVGDYWGQGTQVTVSS”, the “polyreactivity (PSR sort gate)” value is “low polyreactivity”.

Take “QVQLVESGGGLDQAGGSLRLSCAASGRISYRYAMGSYRQAPGKEMELVASISSGVSTYYADSVKGRFTISRDNAKNTVYLQMHSLKPEDSAVYFCAAAYWFHNDYWGLGTQVTVSS”: the “polyreactivity (PSR sort gate)” value was “high polyreactivity”.

For the sequence “QVQLVESGGGLVQAGGSLRLSCAASGSTFTDYDMGWYRQAPGKERELVAAISSGGSTYYADSVKGRFTISRDNAKNTVYLQMNSLKPEDTAVYYCAAVLGVWGGVGSEGDYWGQGTQVTVSS”, the “polyreactivity (PSR sort gate)” value is listed as “low polyreactivity”.

As for “QVQLVESGGGLVQAGGSLRLSCAASGRIFGGYAMGWYRQAPGKERELVATITANGGRTRYADSVKGRFTISRDNAKNTVYLQMNSLKPEDTAVYYCARVYYSSSGYGYWGQGTQVTVSS”, the “polyreactivity (PSR sort gate)” value is “high polyreactivity”.

With “QVQLVESGGGLVQAGGSLRLSCAASGSIFRKNAMGWYRQAPGKERELVAAITCTGRTTYADSVKGRFTISRDNAKNTVYLQMNSLKPEDTAVYYCAADVNYYQHRLYYWGQGTQVTVSS”, the “polyreactivity (PSR sort gate)” value is “low polyreactivity”.

Regarding “QVQLVESGGGLVQAGGSLRLSCAASGSIFSTYGMGWYRQAPGKERELVAAITTSGGRTYYADSVKGRFTISRDNAKNTVYLQMKSLKPEVTAVYYCKAVRGGRYGLDYWGQGTQVNVSS”, the “polyreactivity (PSR sort gate)” value is on record as “high polyreactivity”.

Regarding “QVQLVESGGGLVQAGGSLRLSSAASGFTFDYYAMGWYRQAPGKERELVAAISTSGGSTYYADSVKGRFTISRDNAKNTVYLQMNSLKPEDTAVYYCNVVFYEYSSVSYDYWGQGTQVTVSS”, the “polyreactivity (PSR sort gate)” value was “high polyreactivity”.

Regarding “QVQLVESGGGLVQAGGSLRLSCAASGIIFEYYAMGWYRQAPGKERELVASITSSDGSTYYADSVKGRFTISRDNAKNTVYLQMNSLKPEDTAVYYCAAAGDYVVPISSTAGFGGDYWGQGTQVTVSS”, the “polyreactivity (PSR sort gate)” value is recorded as “low polyreactivity”.

In the case of “QVQLVESGGGLVQAGGSLRLSCAASGRTFGWYAMGWYRQAPGKEREFVAVISRSGTNTYYADSVKGRFTISRDNAKNTVYLQMNSLKPEDTAVYYCATYWSLSQSRQGDYWGQGTQVTVSS”, the “polyreactivity (PSR sort gate)” value is given as “high polyreactivity”.

As to “QVQLVESGGGLVQAGGSLRLICAASGSTFRNYAMGWYRQAPGKDRELVAAISRGDGTYYADSVKWRFTISRDNAKNTVYLLMNSLKPEYSAVYYCAAAYRGRQNPMGFWGQGTQVTVSS”, the “polyreactivity (PSR sort gate)” value is on record as “high polyreactivity”.

For the sequence “QVQLVESGGGLVQAGGSLRLSCAASGSTFYPYAMGWYRQAPGKERELVAAISSGGSTSYADSVKGRFTISRDNAKNTVYLQMNSLKPEDTAVYYCNASSPGAVPVYYYDYWGQGTQVTVSS”, the “polyreactivity (PSR sort gate)” value is “low polyreactivity”.

Regarding “QVQLVESGGGLVQAGGSLRLSCAASGSTFVIYGMGLYRQEPGKESDIVADITWIGGSTYYADSVKGRFTISRDNAKNTVYLQMKSLKPEDTAVYYCAADAAYLYLYNWYDTEDYYWGQGTLVTVSS”, the “polyreactivity (PSR sort gate)” value is reported as “low polyreactivity”.

For the sequence “QVQLVESAVGLVQAGGSLRLSCAASGGIIAYNAMGWYRQAPGKERELVAAISSSGGRTYYADSVKGRFTISRDNAKNTVYLQMNSLKPEDTAVYYCAADITFRYYYWGQGTQVTVSS”, the “polyreactivity (PSR sort gate)” value is “high polyreactivity”.

As to “QVQLVESGGGLVQAGGSLRLICAASGSTFQLYAMGWYRQAPGKERDLFAAISGIGDSTYYADSVKGRFTISRDNAKITVYLQMNSLKPEDTAVYYCAREFSDGLSGKFDYWGQRTQVTVSS”, the “polyreactivity (PSR sort gate)” value is given as “low polyreactivity”.

On to “QVQLVESGGGLVQAGGSLRISCAASGSTFGVNARGWYRQAPGKERELVAGITWTGGSTYYADSVKGRFTISRDNAKNTVYVQMNSLKPEDTAVYFCAKAWYSSYYDDSEDSWGQGTQVTVSS”, for which the “polyreactivity (PSR sort gate)” value is listed as “low polyreactivity”.

With “QVQLVESGGGLVQAGGSLRLSCAASGFIFDYYAMGWYRQAPGKERELVASISGDDGRTYYADSVKGRFTISRDNAKNTVYLQMNSLKPEDTAVYYCNAEWGVLNYDYWGQGTQVTVSS”, the “polyreactivity (PSR sort gate)” value is given as “low polyreactivity”.

“QVQLVESGGRLVQAGGSLRLSCAASGITIRWYAKGWYRQAPGKERELVSRIDGRGASTYADSVKGRFTSSRDNAKNTVYLQMNRLKPEDTAVYYCAVAQVRVSYLWVRKFYYWGQGTQVTVSS”: the “polyreactivity (PSR sort gate)” value is listed as “high polyreactivity”.

For “QVQLVESGGGLVQAGGTLRLSCAASGFTFGFYAMGWYRQAPGKERELVAAITWSGGSTYYADSVKGRFTISRDNAKNTVYLQMNSLKPEDTAVYYCNAYTYGSEFDYWGQGTQVTVSS”, the “polyreactivity (PSR sort gate)” value was “high polyreactivity”.

Take “QVQLVESGGGLVQAGGSLRLSCAASGSIFSSNAMGWYRPAPGKERELVAAITSGGSTTYADSVKGRFTISRDNAKNTVYLQMNSLKPEDTAVYYCNARNYYYPSDRDYWGQGTQVTVSS”: the “polyreactivity (PSR sort gate)” value is “low polyreactivity”.

For the sequence “QVQLVESGGGLVQAGGSLRLSCAASGSIFYGYDMGWYRQAPGKERELVAAITIGGGTTYYADSVKGRFTISRDNAKNTVYLQMNSLKPEDTAVYYCAAEFYYTIYSNKVGYDYWGQGTQVSVSS”, the “polyreactivity (PSR sort gate)” value was “high polyreactivity”.
